# Experimental data: paper PMC3526290
# Columns and labels:
# [1] = molecular target: Cac2 B domain (Saccharomyces cerevisiae) (UniProt Q04199); conditions: cited from earlier work
# [2] = molecular target: Asf1 labeled with Alexa Fluor 532 (*Asf1), full-length (budding yeast) (UniProt P32447); assay: native gel or EMSA; labelled protein (*Asf1, 0.5 µM in Figure 1b, or H3/H4*) with Cac2 or CAF-1 titrated or at 20 µM; 10 mM Tris, 1 mM DTT, pH 8.0, 30 min on ice; 0.2x TBE 59:1 native gel on ice; fraction bound from band densities
# [3] = molecular target: Asf1 labeled with Alexa Fluor 532 (*Asf1), full-length (budding yeast) (UniProt P32447); assay: fluorescence polarisation; fluorescence anisotropy; 10 nM *Asf1 (alone or pre-bound to 20 nM H3/H4) or 100 nM *Asf1^1-169, Cac2 or CAF-1 titrated; 20 mM HEPES, 150 mM NaCl, pH 7.4, 20°C
# Sequence of UniProt Q04199 (Q04199 449-468): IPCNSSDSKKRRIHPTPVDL
substance,measurement,setting,value
Asf1 (from UniProt P32447),Kd,[1],1500 nM
"Chromatin Assembly Factor 1 (CAF-1) complex: Cac1, Cac2, Cac3 (from UniProt Q12495 1-606; Q04199 1-468; P13712 1-422)",Kd,[2],280 nM
same,Kd,[3],380 nM
